Biological target: Monomeric cynomolgus monkey Tau (cynomolgus monkey, UniProt P57786 2-459 (rhesus entry))
Assay: SPR, hIgG captured, cynomolgus Tau monomer analyte, 1:1 model

Chain of Monomeric cynomolgus monkey Tau (P57786 other isoform, or with tags, fused parts or gaps limits assumed, form in doubt): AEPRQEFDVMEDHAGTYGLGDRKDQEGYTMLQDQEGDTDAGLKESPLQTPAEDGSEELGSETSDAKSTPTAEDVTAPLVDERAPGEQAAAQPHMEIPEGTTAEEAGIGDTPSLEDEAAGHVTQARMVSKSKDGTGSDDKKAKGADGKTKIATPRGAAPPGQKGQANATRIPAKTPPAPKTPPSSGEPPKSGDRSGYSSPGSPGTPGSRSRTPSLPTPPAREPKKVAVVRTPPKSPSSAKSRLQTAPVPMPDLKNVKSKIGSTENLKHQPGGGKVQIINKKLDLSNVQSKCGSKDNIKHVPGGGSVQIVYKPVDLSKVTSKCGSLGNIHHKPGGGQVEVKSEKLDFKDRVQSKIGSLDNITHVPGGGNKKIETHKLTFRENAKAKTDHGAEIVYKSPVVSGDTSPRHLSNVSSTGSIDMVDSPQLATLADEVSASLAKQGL

Kd | koff | kon | Binder
700 pM | 0.001 s⁻¹ | 1.7e+06 M⁻¹ s⁻¹ | hu37D3.v28.A4 (antibody, V domains shown, also called hu37D3-H9.v28.A4) VH: EVQLVESGGGLVQPGGSLRLSCAASGLIFRSYGMSWVRQAPGKGLEWVATINSGGTYTYYPDSVKGRFTISRDNSKNTLYLQMNSLRAEDTAVYYCANSYSGAMDYWGQGTLVTVSS VL: DDVLTQTPLSLPVTPGQPASISCRSSQSIVHSNGNTYLEWYLQKPGQSPQLLIYKVSNRFSGVPDRFSGSGSGTDFTLKISRVEAEDVGVYYCFQGSLVPWTFGQGTKVEIK
800 pM |  | 2e+06 M⁻¹ s⁻¹ | hu37D3-H9.v1 (antibody, V domains shown, Kappa1 framework) VH: EVQLVESGGGLVQPGGSLRLSCAASGLIFRSYGMSWVRQAPGKGLEWVATINSGGTYTYYPDSVKGRFTISRDNSKNTLYLQMNSLRAEDTAVYYCANSYSGAMDYWGQGTLVTVSS VL: EDQLTQSPSSLSASVGDRVTITCRSSQSIVHSNGNTYFEWYQQKPGKSPKLLIYKVSNRFSGVPSRFSGSGSGTDFTLTISSLQPEDFATYYCFQGSLVPWTFGQGTKVEIK
600 pM | 0.001 s⁻¹ | 1.5e+06 M⁻¹ s⁻¹ | hu37D3-H9.v5 (antibody, V domains shown, Kappa2 framework) VH: EVQLVESGGGLVQPGGSLRLSCAASGLIFRSYGMSWVRQAPGKGLEWVATINSGGTYTYYPDSVKGRFTISRDNSKNTLYLQMNSLRAEDTAVYYCANSYSGAMDYWGQGTLVTVSS VL: EDVLTQTPLSLPVTPGQPASISCRSSQSIVHSNGNTYFEWYLQKPGQSPQLLIYKVSNRFSGVPDRFSGSGSGTDFTLKISRVEAEDVGVYYCFQGSLVPWTFGQGTKVEIK

— patent US20190112362A1 (published 2019)
